Assay results reported in article PMC4675558.

Target: T1, Cdc53(267-851)/GST-Rbx1 complex expressed in bacteria, Q08273
T1 chain: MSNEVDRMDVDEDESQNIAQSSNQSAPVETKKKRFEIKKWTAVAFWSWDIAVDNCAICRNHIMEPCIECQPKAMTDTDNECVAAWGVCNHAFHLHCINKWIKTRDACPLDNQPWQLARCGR
Test: in vitro binding assay (MBP pull-down on amylose beads, Western blot quantification)
Conditions: chain shown with the change, bacterial lysate expressing Cdc53(267-851)/Rbx1, normalized to Amido black signal of MBP tagged protein, read off a plot

B1: (MBP)-Met30(1-186), P39014 M178E; I179E (protein)
chain: MRRERQRMMSFEDKDKDDLDNSNSNNSSEMTDTAMMPPLKRLLITGSSDDLAQGSSGKKKMTMATRSPSSSPDLATNDSGTRVQPLPEYNFTKFCYRHNPDIQFSPTHTACYKQDLKRTQEINANIAKLPLQEQSDIHHIISKYSNSNDKIRKLILDGILSTSCFPQLSYISSLVTHEEKIDFISI
response (Cdc53/Amido Black) (Exp 1, parent: est. 3.1): 0.15
response (Cdc53/Amido Black) (Exp 2, parent: est. 7.3): 2.9
response (Cdc53/Amido Black) (Exp 3, parent: est. 4.6): 0.45
